This assay deals with human FcγRIIb on Huvec-2b cells (Homo sapiens (Human)., UniProt P31994). As to the kind of experiment: flow cytometry on cells. In general terms: A flow cytometer gives signals particle by particle.
Chain of human FcγRIIb on Huvec-2b cells (P31994 43-310): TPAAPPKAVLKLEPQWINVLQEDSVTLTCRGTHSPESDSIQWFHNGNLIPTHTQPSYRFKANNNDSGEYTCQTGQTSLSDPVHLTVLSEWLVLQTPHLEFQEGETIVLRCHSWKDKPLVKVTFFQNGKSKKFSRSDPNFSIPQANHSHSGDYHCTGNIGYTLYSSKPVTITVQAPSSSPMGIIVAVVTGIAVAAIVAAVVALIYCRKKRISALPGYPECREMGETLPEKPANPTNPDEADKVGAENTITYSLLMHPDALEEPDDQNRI

B1: SK4-Fc (Fc fusion, human)
VH: QVQLVETGGGVVQVGRSLRLSCAASGFTFSHYGMHWVRQAPGKGLEWVSGISWNSDRRGYADSVKGRFTISRDNTKNSLYLQMNSLRAEDTAVYYCVREFYDAFDIWGQGTMVTVSS
VL: DIQMTQSPSSLPAYVGDRVTISCRASQSIRTYLNWYRQKVGKAPELLVYDASSLHKGVPSRFSASGSGTDFSLTISSLQPEDFATYYCQQSFSSPRTFGQGTKVEIK
Take B1: the binding result is listed as “binds”.

B2: SK3-Fc (Fc fusion, human)
VH: QVLVETGGGVVQPGRSLRLSCAASGFTFSSYGMHWVRQAPGKGLEWVAVISYDGDDKDYADSVKGRFTISRDNADSSVFLQMNSLRAEDTALYYCAREGQWVGGALDIWGQGTMVTVSS
VL: DIVMTQSPSTLSASLGDTVTITCRASQSINGWLAWYQQKPGKAPNLLIYQAPNLESGVPSRFSGSGSGTEFTLTINGLQPDDFATYYCQKYDNAPHTFGQGTKVEIK
For B2, the binding result is “binds”.

Source of the values: article PMC12804944 (Nature Communications, 2025).
